Reference: CN111777681A (SHANGHAI LIANGYUE BIOMEDICAL TECH CO LTD, dated 2020)

B1: 3H2-C5 (antibody, V domains shown)
VH: DVQLVESGGGLLQPGGSRKLSCAASGFSFSNFGMHWFRQAPEKGLEWVAFISGGSSPIYYADTVKGRFTISRDNPTNTLFLQMTSLRSEDTAMYYCARFRRGGNAMDYWGQGTSVTVSS
VL: DIVMTQSPSSLTVTAREKVTMSCKSSQSLFNSGNQRNYLTWYQQKPGQPPKLLIYWASTRESGVPDRFTGSGSGTDFTLTIRSVQAEDLAVYYCQNSYSYPFTLGSGTKLEIK
notes: Mouse monoclonal antibody; also called 抗体3H2-C5; 重组抗体3H2-C5
B2: 4F6-G11 (antibody, V domains shown)
VH: DVQLVESGGGLVQPGGSRKLSCGASGFTFSSFGMHWVRQAPEKGLEWVAYISSDSSTKHYADIVKGRFTVSRDNPRNTLFLQMTSLGSEDTAIYYCARLRRGGNALDYWGQGTSVTVSS
VL: DIVMTQSPSFLTVTAGEKVTMSCRSSQSLLNSGNQRNYLTWYQHKPGQSPKLLIYWASTRESGVPDRFTGSGSGTTFTLTISSVQPEDLAVFYCQNNYYFPFTFGSGTKLEIR
notes: Mouse monoclonal antibody; also called 4F6-Gl1; 重组抗体4F6-G11

Molecular target: T1, 人Claudin 18.2 (紧密连接蛋白-18.2) (human)
T1 construct: Full-length protein stably expressed on HEK293 or NIH-3T3 cells; also called 紧密连接蛋白18剪接变体2
Assay: flow cytometry on HEK293-Claudin 18.2 stable cells, recombinant antibody titrated from 600 nM in 3-fold steps

T1 sequence (chain, as listed by the source limits assumed): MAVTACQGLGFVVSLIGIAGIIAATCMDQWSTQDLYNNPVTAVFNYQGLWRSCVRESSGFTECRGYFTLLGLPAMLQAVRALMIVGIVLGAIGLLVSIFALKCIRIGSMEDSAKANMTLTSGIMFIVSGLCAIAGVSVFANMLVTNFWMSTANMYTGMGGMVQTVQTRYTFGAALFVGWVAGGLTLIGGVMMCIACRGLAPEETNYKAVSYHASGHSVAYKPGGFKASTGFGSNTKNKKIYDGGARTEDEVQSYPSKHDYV

Binder	EC50 [nM]
B1	1.01
B2	1.18
